Measured values as given in the DeepSol protein solubility set.

Test: soluble on expression in E. coli; label from the status in PepcDB or PDB records

Sequence | soluble on expression in E. coli
MGSDKIHHHHHHMSDTITFWGVRGSIACPFPGHMAYGGNTSCVALGLGGQTVILDAGTGIRALGASAALRGVSRLALLFSHVHRDHIEGFPFFAPAHDRAVRLDIFAGPIEGASIRQLLDNLMSRPMFPLSLDQLRAQKVFHDLPAATAFTLFERIKVRTAALNHPGGATAYRFEHGGRVVCYVTDTEHRPGQPDAGLLELIAGADYVLYDSTYTDREFAAHRGWGHSTWEEGVRLCRQAGARHLVIFHHDPDHDDAAMAAIETAARAAWGGTLVAREGMTIALDSGVVTQAGR | not soluble
MGSDKIHHHHHHMKLSCSQSELNNALQLVSRAVSNRPTHPVLANVLLAADEVTGKLRLTGFDLSLGIQTSISASIDSSGAITLPAKLFGEIVSKLSNDSPLVLTSDETSQQVELTSKSGTYQVRGMLSDDFPELPLVENGTSFKLNPLLLSNAIKSTLFASSTDDAKQLLTGVNLTFDGYGIESAATDGHRLAVLNLNNILSDSKEIDSSIKFEKFSITLPSKSLREVEKFLSTCDISHPINFFIDKGQVVFISVEDIITIRALEGSYPNYSQLLPDTFENELEFDRKEFISSLERIAVLADQHNNVIKVTTDGSANLIKISTDAQDIGTGYESLPVSYKGDSFQIAFNVRYLLDGLKVIDSNLIKLSCNSPTTPAIFSPINSDVNFTYLVMPIQIRN | not soluble
MSLTPPLAPKTVAALHRLGIRTLEELRQNGSVKAFLLLKASGLTLTKSTLWQLESLLDGTPPQEMSQAHKARLLAELKNHPPVAAFPPQEEMEHFMCEALRQAEQSSADGEIPVGAVIVSDGKIIASAHNTCIADCNVSRHAEINALAQAGREIQNYRLDGCDIYITLEPCAMCASALIQARIRRVIYGAAEPKTGAAGSIVNLFADKRLNTHTAIRGGILQEECRAVLSRFFQNKREGHHHHHH | soluble
SMVFDSESNLDRFLRCTTPIVPAYSLPKTQIKNLNPLWYPLESQSVEYFRLGDFWDCFDEWSAYGAGVPIVSETGETLVQYYVPYLSAIQIFTSHSVINTLREETESGDSGSESCSEEWRWEGCSSSEEGFDHQEPLDRLGYSYLQYFERCTPYSRVPLMDKIKELGERYVGLRSLRSVDLSPASWMAVAWYPIYHIPMNRSIKDLSTCFLTYHTLSSSFQDVKREEEKERISVSAFGMATYKMQGRLWDNDRLLCFLSVADSWLKQLRVHHHDFTYFTTTTHYL | soluble
MRHFDIAITGAGLAGQIAAIALARAGRHVALIAPSSEKKDQRTTALMDQSIRFMDRLGLWSRIAPSAARLSTMQIIDGTDRLLRAPTVQFRSSEIGLDAFGWNIPNEALLGVLSEAVEQEHNITRLDTTAETIDIGNDRISVTIADGEVLSADFLIGADGRKSMVREAAGIGVKSWSYPQTAVVLNFSHSRPHGNVSTEFHTPTGPFTQVPLPDDRSSLVWVVTPQQAEELTALPLETLSLKVEERMQSMLGAVTVENSVQAWPLSSMTAHRFGKGRVALIGEAAHGFPPIGAQGLNLSLRDIIALTELLGAVSDRPIAADAGSSFDRKRRADVYSRTLSVDLLNRSLLSDFLPVQMARAAGLHVLSGIGTLRSMVMREGIEPGRGLKALPSLLFGSFKKAGLEHHHHHH | soluble
MSLEYAKSLFERHLDIASKFRPKNPYLKTAYMNVLLSLTQTICQSPQELSNDDLSDAGAALAYLREAGFELDWLEKKLNEVKEKKKKEEACLAEIQDMDEHVKPLKKKYLDLEAQIDKKKAELLAARAPLSLNDDNVVSMFCDSAETQQWFDKNAPDWGFTEMISLTELHAEEGLLRNGELTVVAKVEVLEVVGKLDVSEESSPVIETIDVNGFQVLPSEGHHHHHH | soluble
MGSDKIHHHHHHACGNSDGAGEDPGVPYLAKKGEPVDGVRIGWDYGTIRQLATRGGYPRSIRLQDNTVVAVYENYDTGYEMRCSTDEGSTWGDPVILFPIHSITNDKGTARINIANSEIIQLANGDLLAACNYRPQTPEITPFAIAVRRSTDNGVTWSDPQIIYEAEPRFSDGCWEPSFLQLPNEEVQVYFANEGPYTHSNEQEISMMTSVDNGKTWGGYKTVCFRAGSRDGMPVSKVVGDEIVCVIEDCGFVTFKPYTVRTKLSDNWSSPVLADSPNRAMALGEPVEDWIYMGAPYLGVLPTGETLLSYQVDDIRHDDQLGDRLPYSTMEVAIGDKNARNFVRRTRPFPVPAGKHAVWPSVAVWDANTIAALATSNYQGGTEAPFFMKGHVMRDLEVNSSDIVNYPIFIGHTGICNLRLGVGKDADNLYITCKVKDGELYSGGQGTQKGSGVFIYLDTKNECLKEPAEGVYKVWCSYKGDITVWQGNKGKWENSELEGLQITPSVVSGGYELAFTIPLNRSFNKDAMRLCATLSTKTYTETLVHSNADRSCTWMKMNLGGH | not soluble
MSLTTYEMARILEQLDESPEKVMYGKLLNELGNQSSERIRSAAKQVPLTVLRDLVYQFQQVIESRKGEQVETMAKELAKQGISAEELLNYLQKR | not soluble
MRGSHHHHHHGRSLNPLSTPQFDSTDETPASYNLAVRRAAPAVVNVYNRGLNTNSHNQLEIRTLGSGVIMDQRGYIITNKHVINDADQIIVALQDGRVFEALLVGSDSLTDLAVLKINATGGLPTIPINARRVPHIGDVVLAIGNPYNLGQTITQGIISATGRIGLNPTGRQNFLQTDASINPGNSGGALVNSLGELMGINTLSFDKSNDGETPEGIGFAIPFQLATKIMDKLIRDGRVIRGYIGIGGREIAPLHAQGGGIDQLQGIVVNEVSPDGPAANAGIQVNDLIISVDNKPAISALETMAQVAEIRPGSVIPVVVMRDDKQLTLQVTIQEYPATN | soluble
MHHHHHHSSGVDLGTENLYFQSMTLESMNPQVKAVEYAVRGPIVLKAGEIELELQRGIKKPFTEVIRANIGDAQAMGQQPITFLRQVMALCTYPNLLDSPSFPEDAKKRARRILQACGGNSLGSYSASQGVNCIREDVAAYITRRDGGVPADPDNIYLTTGASDGISTILKILVSGGGKSRTGVMIPIPQYPLYSAVISELDAIQVNYYLDEENCWALNVNELRRAVQEAKDHCDPKVLCIINPGNPTGQVQSRKCIEDVIHFAWEEKLFLLADEVYQDNVYSPDCRFHSFKKVLYEMGPEYSSNVELASFHSTSKGYMGECGYRGGYMEVINLHPEIKGQLVKLLSVRLCPPVSGQAAMDIVVNPPVAGEESFEQFSREKESVLGNLAKKAKLTEDLFNQVPGIHCNPLQGAMYAFPRIFIPAKAVEAAQAHQMAPDMFYCMKLLEETGICVVPGSGFGQREGTYHFRMTILPPVEKLKTVLQKVKDFHINFLEKYA | soluble
RGSHHHHHHGSMGDNIVLYYFDARGKAELIRLIFAYLGIEYTDKRFGVNGDAFVEFKNFKKEKDTPFEQVPILQIGDLILAQSQAIVRYLSKKYNICGESELNEFYADMIFCGVQDIHYKFNNTNLFKQNETTFLNEDLPKWSGYFEKLLKKNHTNNNNDKYYFVGNNLTYADLAVFNLYDDIETKYPSSLKNFPLLKAHNEFISNLPNIKNYITNRKESVY | soluble
MGSDKIHHHHHHMRVSSDDALFYRIEAFFRGRAYGPHRHDTYAVGITTAGIQSIRYRGELVHSSPGDTVVIHPDEIHDGRAGTVAGYCYRIVHLQPEALQQILGQTSLPFIKEGVSQNAQLYQAIWAMLREFDRPLEPLERTDLLFDLAMALQAAAGTAKAKHTGNIKAALIARDCIRSAPSQRIELDVLARESGRDRWSLSRDFRQFFGTSPSRYMTMRRLDIARRLMSNGTPLAECAVAVGFADQSHMSRQFVEAFGLTPTRWLTMLR | not soluble
SLGWFKTCSKQEDNDVCVVQNVVLAQNGQMITAVGLITVEGKVNRKLLQVSVPTARLIPPGVMMQIDGGKGQKLDYAVCLPDKCTAEVPLTDAMIASLKKGSEVVFTSINFRRAPNPIKIALSGFTGAYDGAAITQSQLAE | not soluble
MNTNVTTNKSVQAAKNTGRVKPQKLADIILAQLEGMIIEGSLQPGEKLLPERELALQFEVSRPSLREAIQKLEAKGLVTRKQGGGTFVCNNLLSGFSDPLFELMSNNNESQFDLLEFRHGIEGMASYYAAMRGTPADFEQIQAKHNEIGNSQLEDDFRGEAEAVVEFHLAICAASHNAVILQLARSMSSLLADNIAQNLTVLAKRPDIFSKITDYRKRLLDAILSGQPQKAWGASHRHLAFIEEVLLKSTQENSRMERSMRRM | not soluble
